In the RNAGym collection of RNA variant scans (doi:10.1093/molbev/msab373) one finds reverse-splicing fitness data, which are given here for 84 variants.

First the molecules themselves.
B1: Azoarcus group I ribozyme (parent)
chain: GUGCCUUGCGCCGGGAAACCACGCAAGGGAUGGUGUCAAAUUCGGCGAAACCUAAGCGCCCGCCCGGGCGUAUGGCAACGCCGAGCCAAGCUUCGGCGCCUGCGCCGAUGAAGGUGUAGAGACUAGACGGCACCCACCUAAGGCAAACGCUAUGGUGAAGGCAUAGUCCAGGGAGUGGCGAAAGUCACACAAACCGG

The variants in the data set derive from B1. As to the kind of experiment: reverse-splicing fitness (ratio to wild type); higher = more active; in vitro selection; Mg2+ level not given. An outline of the steps: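 An in vitro group I ribozyme library with randomized positions was T7-transcribed and gel-purified. In triplicate, 10 pmol RNA in EPPS pH 7.5 was reacted with 50 pmoles of a 30-nt RNA substrate for 1 h at 37 °C across several added MgCl2 levels (1–48 mM), then stopped with EDTA. Products were reverse transcribed from a substrate-complementary primer, PCR-amplified and sequenced (HiSeq 4000). Fitness is a variant's read proportion after selection over that before, normalised to wild type.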
For C82A A111G A120U U176C, the reverse-splicing fitness was 0.0161.
As to C82A A111G A120U U176A, the reverse-splicing fitness came to 0.0096.
On to C82A A111G A120U C150A C169U U176G, for which the reverse-splicing fitness is 0.00235.
For C82A A111G A120U C150A C169U U176C the value was 0.00484.
For C82A A111G A120U C150A C169U U176A the value was 0.00585; for C82A A111G A120U C169G U176G, 0.00181.
For C82A A111G A120U C169G U176A, the reverse-splicing fitness is 0.00294.
The same measure for C82A A111G A120U C169G U176C: 0.00341.
The same measure for C82A A111G A120U A145U C150U C169A U176A: 0.00237; for C82A A111G A120U A145U C150U C169A U176C: 0.00235.
For C82A A111G A120U A145U C150U C169A U176G the value was 0.00171; for C82A A111G A145C C150A C169U U176C, 0.00831.
On to C82A A111G A145C C150A C169U U176G, for which the reverse-splicing fitness stood at 0.00626.
Regarding C82A A111G A145C C150A C169U U176A, the reverse-splicing fitness is 0.0133.
C82A A111G A145U C150A C169A U176A: the reverse-splicing fitness was 0.0124.
Consider C82A A111G A145U C150A C169A U176C, for which the reverse-splicing fitness was 0.0106.
For C82A A111G A145U C150A C169A U176G the value was 0.00674; for C82A A111G A120U C150U U176A, 0.00851; for C82A A111G A120U C150U U176G, 0.00388.
Turning to C82A A111G A120U C150U U176C, the reverse-splicing fitness was determined as 0.0108.
The same measure for C82A A111G A145G: 0.419.
For C82A A111G A145U the value was 0.431; for C82A A111G A145C, 0.41.
For C82A A111G A120U A145G C150U C169G the value was 0.00703; for C82A A111G A120U A145G C150U C169U, 0.00572; for C82A A111G A120U A145G C150U C169A, 0.00667.
As to C82A A111G A120U C150U C169G U176C, the reverse-splicing fitness was 0.00437.
Regarding C82A A111G A120U C150U C169G U176G, the reverse-splicing fitness amounted to 0.00175.
For C82A A111G A120U C150U C169G U176A the value was 0.00869; for C82A A111G A145U C150A U176C, 0.03; for C82A A111G A145U C150A U176A, 0.0241.
The same measure for C82A A111G A145U C150A U176G: 0.0106.
For C82A A111G A145U C150G the value was 0.0319.
Regarding C82A A111G A145U C150A, the reverse-splicing fitness worked out at 0.0313.
Take C82A A111G A145G C150A C169U U176C: the reverse-splicing fitness stood at 0.0164.
In the case of C82A A111G A145G C150A C169U U176G, the reverse-splicing fitness came out at 0.00672.
As to C82A A111G A145G C150A C169U U176A, the reverse-splicing fitness amounted to 0.0159.
The same measure for C82A A111G A120U C150G C169A U176G: 0.0031.
Take C82A A111G A120U C150G C169A U176C: the reverse-splicing fitness was 0.00609.
Take C82A A111G A120U C150G C169A U176A: the reverse-splicing fitness stood at 0.00738.
In the case of C82A A111G A145G C150U C169A U176G, the reverse-splicing fitness amounted to 0.00696.
The same measure for C82A A111G A145G C150U C169A U176A: 0.0167.
With C82A A111G A145G C150U C169A U176C, the reverse-splicing fitness came to 0.0181.
The same measure for C82A A111G A120U A145G C150G: 0.00855.
In the case of C82A A111G A120U A145G C150U, the reverse-splicing fitness is 0.0257.
For C82A A111G A145C C150G C169G U176A, the reverse-splicing fitness came out at 0.0093.
As to C82A A111G A145C C150G C169G U176C, the reverse-splicing fitness was determined as 0.00679.
For C82A A111G A145C C150G C169G U176G the value was 0.00649.
On to C82A A111G A120U A145G C150A C169G U176C, for which the reverse-splicing fitness is 0.00705.
In the case of C82A A111G A120U A145G C150A C169G U176A, the reverse-splicing fitness amounted to 0.015.
For C82A A111G A120U A145G C150A C169G U176G, the reverse-splicing fitness is 0.00282.
In the case of C82A A111G A120U A145U C150G U176G, the reverse-splicing fitness amounted to 0.0023.
For C82A A111G A120U A145U C150G U176C the value was 0.00587; for C82A A111G A120U A145U C150G U176A, 0.0037; for C82A A111G A120U A145G C150U C169A U176A, 0.00727.
The same measure for C82A A111G A120U A145G C150U C169A U176G: 0.00232; for C82A A111G A120U A145G C150U C169A U176C: 0.0045.
For C82A A111G A120U A145U C150A U176A, the reverse-splicing fitness amounted to 0.00478.
With C82A A111G A120U A145U C150A U176G, the reverse-splicing fitness amounted to 0.00197.
Consider C82A A111G A120U A145U C150A U176C, for which the reverse-splicing fitness worked out at 0.00602.
The same measure for C82A A111G A120U C150G C169G U176C: 0.0034; for C82A A111G A120U C150G C169G U176A: 0.00567; for C82A A111G A120U C150G C169G U176G: 0.00237.
For C82A A111G A145G C169A the value was 0.0102; for C82A A111G A145G C169G, 0.00988.
With C82A A111G A145G C169U, the reverse-splicing fitness was 0.0126.
Regarding C82A A111G A145C U176G, the reverse-splicing fitness is 0.0484.
As for C82A A111G A145C U176A, the reverse-splicing fitness was determined as 0.181.
The same measure for C82A A111G A145C U176C: 0.248; for C82A A111G A120U A145U C150A C169A U176C: 0.00213; for C82A A111G A120U A145U C150A C169A U176G: 0.00187.
As for C82A A111G A120U A145U C150A C169A U176A, the reverse-splicing fitness stood at 0.00224.
For C82A A111G A120U A145U C150G C169A U176A the value was 0.0039; for C82A A111G A120U A145U C150G C169A U176G, 0.00276; for C82A A111G A120U A145U C150G C169A U176C, 0.00338.
The same measure for C82A A111G A120U C150A C169G U176G: 0.00222; for C82A A111G A120U C150A C169G U176A: 0.00908; for C82A A111G A120U C150A C169G U176C: 0.00412.
For C82A A111G A145C C150U C169U U176C the value was 0.00981; for C82A A111G A145C C150U C169U U176A, 0.0126.
Regarding C82A A111G A145C C150U C169U U176G, the reverse-splicing fitness was determined as 0.0052.
For C82A A111G A145C C150G C169A U176A the value was 0.00847; for C82A A111G A145C C150G C169A U176C, 0.00805; for C82A A111G A145C C150G C169A U176G, 0.00658.
